{"source": "patent US5786191A", "about": "“Cloning and expression of complementary DNAs for multiple members of the human cytochrome P450 2C subfamily” (priority 1994, dated 1998)", "molecules": {"B1": {"name": "2C8: recombinant human P450 2C8 (clones 7b and 7c, Thr^130 Ile^264 variant) expressed in yeast (protein, UniProt P10632 1-490, looked up)", "Cytochrome P450 2C8": "MEPFVVLVLCLSFMLLFSLWRQSCRRRKLPPGPTPLPIIGNMLQIDVKDICKSFTNFSKVYGPVFTVYFGMNPIVVFHGYEAVKEALIDNGEEFSGRGNSPISQRITKGLGIISSNGKRWKEIRRFSLTTLRNFGMGKRSIEDRVQEEAHCLVEELRKTKASPCDPTFILGCAPCNVICSVVFQKRFDYKDQNFLTLMKRFNENFRILNSPWIQVCNNFPLLIDCFPGTHNKVLKNVALTRSYIREKVKEHQASLDVNNPRDFIDCFLIKMEQEKDNQKSEFNIENLVGTVADLFVAGTETTSTTLRYGLLLLLKHPEVTAKVQEEIDHVIGRHRSPCMQDRSHMPYTDAVVHEIQRYSDLVPTGVPHAVTTDTKFRNYLIPKGTTIMALLTSVLHDDKEFPNPNIFDPGHFLDKNGNFKKSDYFMPFSAGKRICAGEGLARMELFLFLTTILQNFNLKSVDDLKNLNTTAVTKGIVSLPPSYQICFIPV"}}, "assay_type_in_all_cases": "biochemical", "key": {"[1]": {"assay": "Mephenytoin 4'-hydroxylase assay, recombinant human CYP2C yeast microsomes, S-enantiomer", "description": "(§1) Purified or recombinant yeast microsomes (10-50 pmol) were preincubated with dilauroylphosphatidylcholine (15 μg per 50 pmol P450), P450 reductase (500 U per 50 mol P450), and human cytochrome b5 (2:1 molar ratio when added). The reconstituted mixture was preincubated for 5 min at 37° C., and then placed on ice. […] The mixture was then incubated at 37° with shaking for 3 min, and the reaction started with the addition of 2 mM NADPH and terminated after 30 min with an equal volume of methanol. […] Reaction volumes were generally 0.25 ml except when the volume of recombinant purified cytochrome or yeast microsomes was greater than 50 μl. In these cases, the volume was increased to 0.5 ml to limit the volume of glycerol from the purified preparation to <4% of the final volume.\n(§2) At the end of the incubation period, the reactions were terminated with an equal volume of methanol. The incubation mixture was centrifuged at 10,000 g for 10 min and an aliquot assayed directly using HPLC without extraction. Samples with particularly low activity were concentrated by lyophilization and redissolved in a small volume of methanol:water (1:1) before assay. The HPLC system consisted of a reverse phase C18 (10 μm) Versapak, 300 mm×4.1 mm column (Altech Associates, Deerfield, Ill.) using an isocratic solvent consisting of methanol:water (45:55) with a flow rate was kept of 1 ml/min for 25 min."}, "[2]": {"assay": "Mephenytoin 4'-hydroxylase assay, recombinant human CYP2C yeast microsomes, R-enantiomer", "conditions": "yeast microsomes + P450 reductase, phospholipid, cytochrome b5 2:1; 0.4 mM substrate; 37° C., 30 min; liver microsomes unfortified, phosphate buffer; means ± SE", "description": "as §1, §2"}, "[3]": {"assay": "Mephenytoin 4'-hydroxylase assay, purified recombinant P450s in reconstituted system, S-enantiomer", "description": "as §1, §2"}, "[4]": {"assay": "Mephenytoin 4'-hydroxylase assay, purified recombinant P450s in reconstituted system, R-enantiomer", "conditions": "triplicate, means ± SE, blank not subtracted", "description": "as §1, §2"}, "[5]": {"assay": "Tolbutamide hydroxylase assay, purified reconstituted P450s", "conditions": "blank (22 ± 5) subtracted, means ± SE", "description": "Tolbutamide hydroxylase activity was measured according to Knodell et al., J. Pharmacol. Exper. Ther. 241:1112-1119 (1987), with several modifications. Yeast microsomes (1 mg protein) were preincubated with 300 pmol hamster P450 reductase in 0.2 ml of the incubation buffer (below) for 3 min at 37° C. The reaction was then placed on ice and incubated in 0.2 ml of 50 mM HEPES buffer (pH 7.4) containing 1.5 mM MgCl2, 0.1 mM EDTA in a final volume of 1 ml and 1 mM sodium tolbutamide. The reaction was initiated with 0.5 mM NADPH. Human liver microsomes (0.22 mg protein) were incubated without reductase. Incubations with reconstituted recombinant P450s contained 50 pmol purified P450 enzyme, 150 pmol P450 reductase, and 15 μg dilauroylphosphatidylcholine, and were performed in 100 mM potassium phosphate buffer (pH 7.4). Reactions were terminated after 60 min at 37° C. by the addition of 50 μl of 4N HCl, followed by extraction with 3 ml of water-saturated ethyl acetate. The ethyl acetate extracts were dried under nitrogen at 40° C., the residue resolubilized in 200 μl methanol, and 4-hydroxytolbutamide then assayed using HPLC by injecting 50 μl of the solubilized extract onto a μBONDAPAK C18 column (4.6×300 mm) using 0.05% phosphoric acid, pH 2.6: acetonitrile (6:4, v/v) as the mobile phase with a flow rate of 1 ml/min. The column eluate was monitored at 230 nm and rates of product formation were determined from standard curves prepared by adding varying amounts of 4-hydroxytolbutamide to incubations conducted without NADPH. […] Samples were analyzed in triplicate."}, "[6]": {"assay": "Tolbutamide hydroxylase assay, recombinant human CYP2C yeast microsomes", "conditions": "means ± SE", "description": "Yeast microsomes (1 mg protein) were preincubated with 300 pmol hamster P450 reductase in 0.2 ml of the incubation buffer (below) for 3 min at 37° C. The reaction was then placed on ice and incubated in 0.2 ml of 50 mM HEPES buffer (pH 7.4) containing 1.5 mM MgCl2, 0.1 mM EDTA in a final volume of 1 ml and 1 mM sodium tolbutamide. The reaction was initiated with 0.5 mM NADPH. Human liver microsomes (0.22 mg protein) were incubated without reductase. Incubations with reconstituted recombinant P450s contained 50 pmol purified P450 enzyme, 150 pmol P450 reductase, and 15 μg dilauroylphosphatidylcholine, and were performed in 100 mM potassium phosphate buffer (pH 7.4). Reactions were terminated after 60 min at 37° C. by the addition of 50 μl of 4N HCl, followed by extraction with 3 ml of water-saturated ethyl acetate. […] The column eluate was monitored at 230 nm and rates of product formation were determined from standard curves prepared by adding varying amounts of 4-hydroxytolbutamide to incubations conducted without NADPH. […] Samples were analyzed in triplicate."}}, "data": [{"molecule": "B1", "values": [{"measurement": "R/S Ratio of mephenytoin 4'-hydroxylase activity", "setting": "[1]; recombinant yeast microsomes (Table III)", "value": 0.4}, {"measurement": "Mephenytoin 4'-Hydroxylase Activity, S", "setting": "[1]; yeast microsomes + P450 reductase, phospholipid, cytochrome b5 2:1, 0.4 mM substrate, 37° C., 30 min, liver microsomes unfortified, phosphate buffer, means ± SE", "value": "0.037 ± 0.001", "unit": "nmol/min/nmol P450"}, {"measurement": "Mephenytoin 4'-Hydroxylase Activity, R", "setting": "[2]", "value": "0.016 ± 0.001", "unit": "nmol/min/nmol P450"}, {"measurement": "R/S Ratio of mephenytoin 4'-hydroxylase activity", "setting": "[3]; purified P450s (Table IV)", "value": 0.4}, {"measurement": "Mephenytoin 4'-Hydroxylase Activity, S", "setting": "[3]; purified P450s, reconstituted system, triplicate, means ± SE, blank not subtracted", "value": "0.057 ± 0.009", "unit": "nmol/min/nmol P450"}, {"measurement": "Mephenytoin 4'-Hydroxylase Activity, R", "setting": "[4]", "value": "0.023 ± 0.004", "unit": "nmol/min/nmol P450"}, {"measurement": "Tolbutamide Hydroxylase Activity", "setting": "[5]", "value": "12 ± 4", "unit": "pmol/min/nmol P450"}, {"measurement": "Tolbutamide Hydroxylase Activity per mg protein", "setting": "[6]; 1 mg yeast microsomal protein + P450 reductase, or 0.2 mg liver microsomal protein without reductase", "value": "8.5 ± 0.2", "unit": "nmol/min/mg protein"}, {"measurement": "Tolbutamide Hydroxylase Activity per nmol P450", "setting": "[6]; adjusted for P450 content", "value": "0.11 ± 0.003", "unit": "nmol/min/nmol P450"}]}]}
